Data taken from publication doi:10.1101/124255.

Biological target: dynein-dynactin-BicD2N (DDB) complex (mouse | rat (endogenous in rat brain cytosol)) (UniProt Q921C5)
Test: multicolor single-molecule TIRF microscopy

Sequence of UniProt Q921C5 (Q921C5 whole entry, looked up, one chain of several): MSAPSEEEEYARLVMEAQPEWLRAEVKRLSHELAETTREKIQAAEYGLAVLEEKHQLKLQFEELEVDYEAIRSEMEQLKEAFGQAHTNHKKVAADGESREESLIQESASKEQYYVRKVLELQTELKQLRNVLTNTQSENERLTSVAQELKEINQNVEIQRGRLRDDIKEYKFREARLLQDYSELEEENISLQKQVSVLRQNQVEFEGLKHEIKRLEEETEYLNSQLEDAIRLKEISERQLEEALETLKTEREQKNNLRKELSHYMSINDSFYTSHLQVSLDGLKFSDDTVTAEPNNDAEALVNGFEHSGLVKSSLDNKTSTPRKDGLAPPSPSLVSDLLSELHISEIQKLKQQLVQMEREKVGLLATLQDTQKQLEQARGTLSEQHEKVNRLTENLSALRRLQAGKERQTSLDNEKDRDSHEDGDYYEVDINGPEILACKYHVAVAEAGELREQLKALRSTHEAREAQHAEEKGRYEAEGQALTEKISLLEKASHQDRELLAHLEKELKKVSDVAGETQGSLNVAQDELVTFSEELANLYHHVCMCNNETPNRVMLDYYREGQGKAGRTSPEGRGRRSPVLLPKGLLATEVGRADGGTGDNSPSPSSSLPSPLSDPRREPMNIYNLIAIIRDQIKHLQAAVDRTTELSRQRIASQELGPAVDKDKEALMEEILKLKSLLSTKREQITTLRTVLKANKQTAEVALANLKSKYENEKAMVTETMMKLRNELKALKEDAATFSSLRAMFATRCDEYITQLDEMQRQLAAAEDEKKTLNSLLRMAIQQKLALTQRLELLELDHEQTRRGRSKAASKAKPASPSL

percent of DDB-L complexes with both 647- and 488-SNAP LIS1: 8%
percent of DDB-L complexes with two LIS1 dimers: < 24%
percent of diffusive DDB complexes with a bound LIS1: 34%
percent of processive DDB complexes with a bound LIS1: 18%
stoichiometry N (LIS1 dimer per DDB): 1
stoichiometry N (LIS1 dimers per DDB): 2
B1: Rattus norvegicus LIS1 (PAFAH1b1), StrepII-SNAPf tagged, wild type (natural protein)
chain: MVLSQRQRDELNRAIADYLRSNGYEEAYSVFKKEAELDMNEELDKKYAGLLEKKWTSVIRLQKKVMELESKLNEAKEEFTSGGPLGQKRDPKEWIPRPPEKYALSGHRSPVTRVIFHPVFSVMVSASEDATIKVWDYETGDFERTLKGHTDSVQDISFDHSGKLLASCSADMTIKLWDFQGFECIRTMHGHDHNVSSVAIMPNGDHIVSASRDKTIKMWEVQTGYCVKTFTGHREWVRMVRPNQDGTLIASCSNDQTVRVWVVATKECKAELREHEHVVECISWAPESSYSSISEATGSETKKSGKPGPFLLSGSRDKTIKMWDVSTGMCLMTLVGHDNWVRGVLFHSGGKFILSCADDKTLRVWDYKNKRCMKTLNAHEHFVTSLDFHKTAPYVVTGSVDQTVKVWECR
modifications: SNAP dye (SNAP-Alexa 647 or SNAP-Surface 488) covalently on the SNAP tag
